Where a chain is given by its changes, count along the chain named.
T1: human C4b (human) (UniProt P0C0L5)
T1 sequence: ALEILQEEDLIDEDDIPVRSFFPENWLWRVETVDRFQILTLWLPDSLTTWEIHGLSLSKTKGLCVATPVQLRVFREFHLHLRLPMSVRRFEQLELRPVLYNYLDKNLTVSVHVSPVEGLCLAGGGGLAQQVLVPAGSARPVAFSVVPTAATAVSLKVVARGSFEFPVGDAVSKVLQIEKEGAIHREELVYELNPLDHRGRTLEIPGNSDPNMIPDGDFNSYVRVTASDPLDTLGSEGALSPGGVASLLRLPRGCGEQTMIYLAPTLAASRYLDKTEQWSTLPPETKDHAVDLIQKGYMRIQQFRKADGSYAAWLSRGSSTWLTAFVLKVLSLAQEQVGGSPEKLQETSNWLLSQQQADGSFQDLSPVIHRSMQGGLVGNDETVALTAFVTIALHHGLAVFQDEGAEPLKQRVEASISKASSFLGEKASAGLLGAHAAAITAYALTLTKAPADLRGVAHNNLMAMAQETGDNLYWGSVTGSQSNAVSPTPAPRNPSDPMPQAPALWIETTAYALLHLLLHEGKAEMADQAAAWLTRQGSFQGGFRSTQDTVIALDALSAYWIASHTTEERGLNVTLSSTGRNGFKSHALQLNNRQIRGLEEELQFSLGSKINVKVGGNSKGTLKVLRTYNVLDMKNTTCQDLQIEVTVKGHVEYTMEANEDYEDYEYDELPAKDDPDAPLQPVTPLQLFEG

T2: human C4b (human) (UniProt P0C0L4)
T2 sequence: T1 sequence with T151A, G317D, L364P, S365C, I368L, H369D, S420N, A451V, R454L, A530S

B1: WT mouse CFI (enzyme)
chain: RSPSASDLPQEELVDQKCLLQKYTHRSCNKVFCQPWQRCIEGTCICKLPYQCPRAGTPVCAMNGRSYPTYCHQKSFECLHPEIKFSHNGTCAAEGKFNVSLIYGRTKTEGLVQVKLVDQDERMFICKNSWSMAEANVACVDLGFPLGVRDIQGSFNISGNLHINDTECLHVHCRGVETSLAECAFTKRRTELSNGLAGVVCYKQDADFPTSLSFQCVNGKHIPQEKACNGVNDCGDQSDELCCKGCRGNASLCKSGVCIPDQYKCNGEVDCITGEDESRCEEDRQQNIPKGLARSAQGEAEIETEETEMLTPGMDNERKRIKSLLPKLSCGVKRNTHTRRKRVIGGKPANVGDYPWQVAIKDGQRITCGGIYIGGCWILTAAHCVRPSRAHSYQVWTALLDWLKPNSQLGIQTVKRVIVHEKYNGATFQNDIALIEMKMHTGKKECELPNSVPACVPWSPYLFQPNDRCIISGWGRGKDNQKVYSLRWGEVDLIGNCSQFYPDRYYEKEMQCAGTRDGSIDACKGDSGGPLVCEDINNVTYVWGIVSWGENCGKPEFPGVYTRVANYFDWISYHVGRSLVSQHNV

Experiments:
[1] = target: soluble human C3b (human) (UniProt P01024)
human C4b (human) [2] = target: T1, human C4b (human)
[3] = target: soluble human C3b (human) (UniProt P01024); remark: listed apart in the source
human C4b (human) [4] = target: T2, human C4b (human)

Row | Molecule | iC3b Screen Ref Fold (fold vs CFI-HSA wild type) [1] | C4b Screen Ref Fold (fold vs CFI-HSA wild type) (human C4b (human) [2]) | iC3b EC50 [3] | C4c EC50 (nM) (human C4b (human) [4]) | iC3b Screen Ref Fold (fold of CFI-HSA wild type) [1] | C4b Screen Ref Fold (fold of CFI-HSA wild type) (human C4b (human) [2]) | C4c EC50 (human C4b (human) [4])
1 | CFI-HSA variant N518Q (enzyme) | 1 | 1.11 | 20.2 nM | 510 nM |  |  | 
2 | CFI-HSA variant N531G; D425K (enzyme) |  |  | 5.2 nM |  | 1.19 | 4.7 | 51.9 nM
3 | CFI-HSA variant N531G; E416A (enzyme) |  |  | 6.9 nM | 11.9 nM | 1.11 | 4.82 | 
4 | CFI-HSA variant N531G; E457G; E461Q (enzyme) | 0.95 | 6.42 | 5.6 nM | 29.3 nM |  |  | 
5 | CFI-HSA variant N531G; N422K (enzyme) |  |  | 5.2 nM |  | 2.43 | 4.68 | 42.6 nM
6 | CFI-HSA variant N531G; P535A (enzyme) | 1.53 | 5.6 | 7.9 nM | 53.4 nM |  |  | 
7 | CFI-HSA variant P535G; D425K (enzyme) |  |  | 19.4 nM |  | 0.53 | 0.1 | 865 nM
8 | CFI-HSA variant P535G; E416A (enzyme) |  |  | 41.6 nM | > 1000 nM | 0.53 | 0.13 | 
9 | CFI-HSA variant P558A (enzyme) |  |  | 20.8 nM |  | 0.87 | 1.21 | 213 nM
10 | CFI-HSA variant P558L (enzyme) | 0.99 | 0.89 | 12.4 nM | 472 nM |  |  | 
11 | CFI-HSA variant Q467K (enzyme) | 0.95 | 3.04 | 18.7 nM | 246 nM |  |  | 
12 | CFI-HSA variant Q467K; F537K (enzyme) | 1.31 | 0.85 | 12.7 nM | 615 nM |  |  | 
13 | CFI-HSA variant Q467R (enzyme) | 0.59 | 0.48 | 27.1 nM | 399 nM |  |  | 
14 | CFI-HSA variant R557K (enzyme) | 0.28 | 3.09 | 99.9 nM | 266 nM |  |  | 
15 | CFI-HSA variant Y408F (enzyme) | 0.61 | 1.88 | 19.2 nM | 225 nM |  |  | 
16 | CFI-HSA variant Y408H (enzyme) | 0.82 | 0.05 | 43.3 nM | > 1000 nM |  |  | 
17 | CFI-HSA variant Y408L-N531G (enzyme) | 1.09 | 5.29 | 10.6 nM | 70.5 nM |  |  | 
18 | CFI-HSA variant Y408L; E416A (enzyme) |  |  | 20.8 nM |  | 1.21 | 0.41 | > 1000 nM
19 | CFI-HSA variant Y408L; E457G; N531G; D425K (enzyme) |  |  | 4.7 nM |  | 0.58 | 5.1 | 13.5 nM
20 | CFI-HSA variant Y408L; E457G; N531G; P535G; P558S (enzyme) |  |  | 9.6 nM |  | 1.39 | 4.34 | 27.9 nM
21 | CFI-HSA variant Y408L; E457G; P535G (enzyme) |  |  | 11.7 nM |  | 0.6 | 1.21 | 205 nM
22 | CFI-HSA variant Y408L; E457G; P535G; D425K (enzyme) |  |  | 5.2 nM |  | 0.04 | 2.13 | 46.5 nM
23 | CFI-HSA variant Y408L; P535G (enzyme) |  |  | 50.9 nM |  | 0.27 | 0 | > 1000 nM
24 | CFI-HSA variant Y408L; P535G; D425K (enzyme) |  |  | 19.7 nM |  | 0.56 | 0 | > 1000 nM
25 | CFI-HSA variant Y408N (enzyme) | 0.51 | 0.09 | 64.2 nM | 710 nM |  |  | 
26 | CFI-HSA wild type (enzyme) | 1 | 1 | 28.4 nM | 299 nM |  |  | 
27 | WT; GGSSGG (SEQ ID NO: 6); CR1(ccp15-17) (enzyme) | 0.04 | 5.25 | 31.9 nM | 53.1 nM |  |  | 
28 | B1 | 0.04 | 6.24 | > 500 nM | 54 nM |  |  | 

Source: US20230038638A1, “COMPLEMENT FACTOR I-RELATED COMPOSITIONS AND METHODS” (published 2023)
